Test [1] has as its target T1, human tissue factor pathway inhibitor (TFPI) (human, UniProt P10646 29-304, limits assumed).
T1 construct: Bought protein; also called human TFPI; hTFPI
T1 sequence (looked up): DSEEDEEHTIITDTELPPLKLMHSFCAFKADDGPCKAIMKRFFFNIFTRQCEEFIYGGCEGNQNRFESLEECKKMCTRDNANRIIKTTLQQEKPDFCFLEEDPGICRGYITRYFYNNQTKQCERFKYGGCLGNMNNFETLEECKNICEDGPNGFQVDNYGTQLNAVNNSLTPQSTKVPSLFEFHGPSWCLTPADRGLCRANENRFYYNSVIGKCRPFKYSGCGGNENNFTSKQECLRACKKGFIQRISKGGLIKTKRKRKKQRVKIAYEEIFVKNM
The test can be described thus: ELISA, Fab from bacterial lysate on coated human TFPI.

In test [2] the target is T1, human tissue factor pathway inhibitor …. As to the kind of experiment: ELISA on coated human TFPI.
The target of test [3] is T2, mouse tissue factor pathway inhibitor (TFPI) (mouse, UniProt O54819 29-289, limits assumed).
T2 construct: Bought protein; also called mouse TFPI; mTFPI
T2 sequence (looked up): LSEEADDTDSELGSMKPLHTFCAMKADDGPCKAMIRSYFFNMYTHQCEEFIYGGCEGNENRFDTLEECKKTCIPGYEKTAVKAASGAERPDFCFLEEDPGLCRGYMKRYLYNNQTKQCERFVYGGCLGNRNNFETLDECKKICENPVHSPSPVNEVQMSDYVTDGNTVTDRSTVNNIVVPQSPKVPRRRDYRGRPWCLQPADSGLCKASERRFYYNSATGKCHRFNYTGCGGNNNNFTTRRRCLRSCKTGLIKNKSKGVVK
As to the kind of experiment: ELISA on coated mouse TFPI.

Test [4] addresses T1, human tissue factor pathway inhibitor …. As to the kind of experiment: ELISA on coated human TFPI, IgG against Fab.
The target in test [5] is T2, mouse tissue factor pathway inhibitor …. As to the kind of experiment: ELISA on coated mouse TFPI, IgG against Fab.

B1: TP-2A8 (Fab, V domains shown)
VH: QVQLVESGGGLVQPGGSLRLSCAASGFTFRSYGMSWVRQAPGKGLEWVSSIRGSSSSTYYADSVKGRFTISRDNSKNTLYLQMNSLRAEDTAVYYCARKYRYWFDYWGQGTLVTVSS
VL: DIELTQPPSVSVAPGQTARISCSGDNLRNYYAHWYQQKPGQAPVVVIYYDNNRPSGIPERFSGSNSGNTATLTISGTQAEDEADYYCQSWDDGVPVFGGGTKLTVLG
notes: Human Fab (HuCAL Gold, E. coli TG1); also called Fab-2A8; TP-2A8-Fab
In the case of B1, in test [1], the binding result is on record as “binds”.

B2: TP-4B7 (Fab, V domains shown)
VH: QVQLQQSGPGLVKPSQTLSLTCAISGDSVSSNSAAWSWIRQSPGRGLEWLGIIYKRSKWYNDYAVSVKSRITINPDTSKNQFSLQLNSVTPEDTAVYYCARWHSDKHWGFDYWGQGTLVTVSS
VL: DIVMTQSPLSLPVTPGEPASISCRSSQSLVFSDGNTYLNWYLQKPGQSPQLLIYKGSNRASGVPDRFSGSGSGTDFTLKISRVEAEDVGVYYCQQYDSYPLTFGQGTKVEIKR
notes: Human Fab (HuCAL Gold, E. coli TG1)
Take B2: the binding result in test [1] was “binds”.

B3: TP-2G6 (Fab, V domains shown)
VH: QVQLQQSGPGLVKPSQTLSLTCAISGDSVSSSSAAWSWIRQSPGRGLEWLGIIYYRSKWYNDYAVSVKSRITINPDTSKNQFSLQLNSVTPEDTAVYYCARHSMVGFDVWGQGTLVTVSS
VL: DIVLTQSPATLSLSPGERATLSCRASQYVTSSYLAWYQQKPGQAPRLLIYGSSRATGVPARFSGSGSGTDFTLTISSLEPEDFATYYCQQYSSSPITFGQGTKVEIKR
notes: Human Fab (HuCAL Gold, E. coli TG1); also called 2G6-Fab
With B3, the 50% effective concentration (EC50) in test [2] turned out to be 0.48 nM; in test [3] it was 5.18 nM.

B4: 2G6-IgG (antibody, V domains shown)
VH: B3 VH
VL: B3 VL
notes: Chimeric IgG: variable regions of TP-2G6 on mouse IgG1 constant regions, expressed in HKB11 cells; also called IgG-2G6; TP-2G6 after conversion to IgG
Turning to B4, the results for the EC50 in test [2] and in test [3] were 0.22 nM and 0.51 nM, respectively. Besides, the results for the “fold improvement of EC50 against 2G6-Fab” value in test [4] and in test [5] were 2 fold and 10 fold, respectively.

(Values after patent JP2018108089A (dated 2018).)
